Experimental data published in publication PMC4497409 (2015).

Molecular target: Biotinylated human Norrin K58N (disease-associated mutation) (human, UniProt Q00604 25-133, K58N, biotin on the C-terminal BirA recognition sequence (in vivo biotinylation))
Assay: SPR

Sequence of Biotinylated human Norrin K58N (disease-associated mutation) (Q00604 25-133 K58N): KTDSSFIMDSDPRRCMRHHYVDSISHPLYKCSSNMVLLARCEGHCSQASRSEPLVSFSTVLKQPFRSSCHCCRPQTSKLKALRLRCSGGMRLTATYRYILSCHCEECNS

B1: Frizzled4 cysteine-rich domain (Fz4CRD), human (domain or fragment)
chain: ERRCDPIRISMCQNLGYNVTKMPNLVGHELQTDAELQLTTFTPLIQYGCSSQLQFFLCSVYVPMCTEKINIPIGPCGGMCLSVKRRCEPVLKEFGFAWPESLNCSKFPPQNDHNHMCMEGPGDEEVPLPHKTPIQPGE
modifications: N-linked glycans at Asn59 and Asn144 (full, or cut to N-acetylglucosamine by Endo-F1)
  Kd: 1240 nM
